According to PMC3343272, “Asymmetric Mode of Ca^2+-S100A4 Interaction with Nonmuscle Myosin IIA Generates Nanomolar Affinity Required for Filament Remodeling” (Structure(London, England:1993), 2012):
“And” between values parts separate entries of the source, which are not always exact repeats. Equal entries are not always repeated. Where two headings read alike, the source gives them in different places.

B2: S100A4 (natural protein)
chain: not shown
notes: S100A4; the NMR analysis speaks of residues 1-101; The His-tag is named only for the SPR experiment (two His-tags in the dimer); also called WT S100A4; u-S100A4; source: expressed and purified as described previously (Badyal et al., 2011)
B3: M200 fragment of nonmuscle myosin IIA heavy chain (Q1761-E1960) (domain or fragment, UniProt P35579 1761-1960, looked up)
chain: QINTDLNLERSHAQKNENARQQLERQNKELKVKLQEMEGTVKSKYKASITALEAKIAQLEEQLDNETKERQAACKQVRRTEKKLKDVLLQVDDERRNAEQYKDQADKASTRLKQLKRQLEEAEEEAQRANASRRKLQRELEDATETADAMNREVSSLKNKLRRGDLPFVVPRRMARKGAGDGSDEEVDGKADGAEAKPAE
notes: nonmuscle myosin IIA heavy chain, residues Q1761-E1960; forms a coiled coil and filaments; source: expressed and purified as described previously (Badyal et al., 2011)

Legend:
[1] = target: the molecule itself; experiment: SEC-MALLS; Superdex 75 10/300, 20 mM MES pH 6.1, 150 mM NaCl, 0.5 mM DTT, 0.7 ml/min; 75 µM M70, 150 µM M111, 50 µM S100A4, 50 µM S100A4 V77D, 50 µM S100A4 C81D loaded
[2] = target: B3; experiment: competitive turbidity assay; 12.5 µM M200 diluted into 100 mM NaCl, 20 mM Hepes, 1 mM Mg2+, 100 µM Ca2+; turbidity at 300 nm; 25 µM S100A4 (monomer) added at 800 s, 10 µM M39 added at 1450 s; conditions: both partners purified
[3] = target: the molecule itself; experiment: as above
[4] = target: the molecule itself; experiment: SEC-MALLS; Superdex 75 10/300, 20 mM MES pH 6.1, 150 mM NaCl, 0.5 mM DTT, 0.7 ml/min; 75 µM M70, 150 µM M111, 50 µM S100A4, 50 µM S100A4 V77D, 50 µM S100A4 C81D loaded; remark: listed apart in the source
[5] = target: T1, S100A4, wild type, Ca^2+-bound dimer (recombinant) (UniProt P26447 1-101); experiment: SEC-MALS; SEC-MALLS with refractive index and absorbance detection; S100A4 and myosin fragment mixed (1:1 molar ratio for M111); conditions: both partners purified
T1 construct: also called WT; u-S100A4; source: recombinant, unlabeled and 13C,15N-labeled; purified

S100A4 [6] = target: B2; experiment: kinetic scheme (estimates or values required for thermodynamic balance); apo S100A4 dimer (no Ca2+ bound); values in blue in the scheme, not experimental measurements; conditions: both partners purified
S100A4 [7] = target: B2; experiment: kinetic scheme (estimates or values required for thermodynamic balance); S100A4 dimer with a single Ca2+ bound; values in blue in the scheme, not experimental measurements; conditions: both partners purified
S100A4 [8] = target: B2; experiment: competitive turbidity assay; 12.5 µM M200 diluted into 100 mM NaCl, 20 mM Hepes, 1 mM Mg2+, 100 µM Ca2+; turbidity at 300 nm; 25 µM S100A4 (monomer) added at 800 s, 10 µM M39 added at 1450 s; conditions: both partners purified
S100A4 [9] = target: B2; experiment: SPR; Biacore X100, S100A4 (0.5 µM) coupled by its His-tags to a Ni-NTA chip; M39 at 1, 3, 9 and 27 nM; 20 mM MES pH 6.1, 150 mM NaCl, 5 mM CaCl2, 0.5 mM TCEP, 50 µM EDTA, 0.005% Surfactant P20; fit to 1:1 Langmuir model; conditions: both partners purified
S100A4 [10] = target: B2; experiment: stopped-flow Quin-2 fluorescence (Ca2+ dissociation); M39 premixed with 13 µM S100A4 (monomer concentration) and 50 µM Ca2+, mixed with 100 µM Quin-2; 20 mM NaCl, 10 mM Hepes, 1 mM MgCl2, pH 7.5, 20 °C; amplitude of the fast phase against [M39]; mutants with up to 50 µM M39; conditions: both partners purified
[11] = target: T1, S100A4, wild type, Ca^2+-bound dimer …; experiment: kinetic assays; kinetic assays similar to those of Badyal et al., 2011 (Figures S1I–S1L); conditions: both partners purified
[12] = target: T1, S100A4, wild type, Ca^2+-bound dimer …; experiment: ITC + SPR + other: kinetic assays; limit that the paper gives as compatible with all its methods; conditions: both partners purified
[13] = target: T1, S100A4, wild type, Ca^2+-bound dimer …; experiment: SPR; sensorgrams at nanomolar concentrations of M39; simultaneous fit to a single site-binding model; n = 3; conditions: both partners purified
[14] = target: T2, S100A4 V77D mutant (studied in vitro) (UniProt P26447 1-101, V77D); experiment: NMR titration; S100A4 V77D and C81D mutants (Figures S3C and S3D); the myosin fragment is not given; conditions: both partners purified
T2 construct: Parent: m1

[15] = target: T3, S100A4 C81D mutant (studied in vitro) (UniProt P26447 1-101, C81D); experiment: as above; conditions: both partners purified
T3 construct: Parent: m1

[16] = target: T1, S100A4, wild type, Ca^2+-bound dimer …; experiment: ITC; 10 μM S100A4 in the cell, 75 μM M39 in the syringe; single site-binding model; the paper calls the KD an upper limit; conditions: both partners purified

B1: S100A4 C81D (natural protein)
chain: not shown
notes: source: expressed and purified as described previously (Badyal et al., 2011)
- stoichiometry N [1]: 2

Binder: B2
- binding result [2]: binds

Binder: B3
- binding result [3]: binds

B4: M111 fragment of nonmuscle myosin IIA heavy chain (residues Q1850-E1960) (domain or fragment, UniProt P35579 1850-1960, looked up)
chain: QVDDERRNAEQYKDQADKASTRLKQLKRQLEEAEEEAQRANASRRKLQRELEDATETADAMNREVSSLKNKLRRGDLPFVVPRRMARKGAGDGSDEEVDGKADGAEAKPAE
notes: nonmuscle myosin IIA heavy chain, residues Q1850-E1960; source: expressed and purified as described previously (Badyal et al., 2011)
- stoichiometry N [4]: 2

B5: M111, nonmuscle myosin IIA heavy chain fragment (residues Q1850–E1960) (domain or fragment, UniProt P35579 1850-1960, looked up)
chain: QVDDERRNAEQYKDQADKASTRLKQLKRQLEEAEEEAQRANASRRKLQRELEDATETADAMNREVSSLKNKLRRGDLPFVVPRRMARKGAGDGSDEEVDGKADGAEAKPAE
notes: nonmuscle myosin IIA (NMIIA) heavy chain, residues Q1850-E1960
- stoichiometry N [5]: 0.5 myosin fragment per S100A4 subunit

B6: M70 fragment of nonmuscle myosin IIA heavy chain (residues A1868-G1938) (domain or fragment, UniProt P35579 1868-1938, looked up)
chain: ASTRLKQLKRQLEEAEEEAQRANASRRKLQRELEDATETADAMNREVSSLKNKLRRGDLPFVVPRRMARKG
notes: nonmuscle myosin IIA heavy chain, residues A1868-G1938; small print, not read surely; also called u-M70; 15N-M70; source: recombinant; expressed and purified as described previously (Badyal et al., 2011)
- stoichiometry N [4]: 2

B7: M70, nonmuscle myosin IIA heavy chain fragment (residues A1868–G1938) (domain or fragment, UniProt P35579 1868-1938, looked up)
chain: ASTRLKQLKRQLEEAEEEAQRANASRRKLQRELEDATETADAMNREVSSLKNKLRRGDLPFVVPRRMARKG
notes: nonmuscle myosin IIA (NMIIA) heavy chain, residues A1868-G1938; also called u-M70; 13C,15N-M70; source: recombinant, unlabeled, 15N-labeled and 13C,15N-labeled
- stoichiometry N [5]: 0.5 myosin fragment per S100A4 subunit

B8: S100A4 V77D (natural protein)
chain: MACPLEKALDVMVSTFHKYSGKEGDKFKLNKSELKELLTRELPSFLGKRTDEAAFQKLMSNLDSNRDNEVDFQEYCDFLSCIAMMCNEFFEGFPDKQPRKK
notes: as for B1
- stoichiometry N [1]: 2

B9: M39 peptide of nonmuscle myosin IIA heavy chain (residues Q1897-A1935) (peptide)
peptide: QRELEDATETADAMNREVSSLKNKLRRGDLPFVVPRRMA
notes: nonmuscle myosin IIA heavy chain (NM-MHC IIA), residues Q1897-A1935; also called u-M39; WT M39; source: synthetic peptide; bought: GL Biochem Ltd (Shanghai, China), purity >95% by HPLC
- Kd (S100A4 [6]): 10000 µM
- Kd (S100A4 [7]): 1 µM
- Kd (S100A4 [8]): < 0.01 µM
- Kd (S100A4 [9]): 0.0004 µM
- Kd (S100A4 [10]): < 0.5 µM
- stoichiometry N (S100A4 [10]): 2.6 S100A4 monomers per M39

B10: M39, nonmuscle myosin IIA heavy chain peptide (residues Q1897–A1935) (peptide, UniProt P35579 1897-1935, looked up)
peptide: QRELEDATETADAMNREVSSLKNKLRRGDLPFVVPRRMA
notes: nonmuscle myosin IIA (NMIIA) heavy chain, residues Q1897-A1935; Unmodified (no fluorescent label); also called u-M39; source: synthetic peptide
- Kd [11]: ~0.0001 µM
- Kd [12]: ≤ 0.001 µM
- Kd [13]: 0.00024 ± 7e-05 µM
- Kd [14]: ~100 µM
- Kd [15]: ~100 µM
- Kd [16]: 0.0059 µM and 0.004 µM
- stoichiometry N [16]: 0.55 ± 0.06 M39/S100A4
